T1: human CCR4 (human, UniProt P51679 1-360)
T1 construct: also called hCCR4; human CCR4+ cells
T1 sequence: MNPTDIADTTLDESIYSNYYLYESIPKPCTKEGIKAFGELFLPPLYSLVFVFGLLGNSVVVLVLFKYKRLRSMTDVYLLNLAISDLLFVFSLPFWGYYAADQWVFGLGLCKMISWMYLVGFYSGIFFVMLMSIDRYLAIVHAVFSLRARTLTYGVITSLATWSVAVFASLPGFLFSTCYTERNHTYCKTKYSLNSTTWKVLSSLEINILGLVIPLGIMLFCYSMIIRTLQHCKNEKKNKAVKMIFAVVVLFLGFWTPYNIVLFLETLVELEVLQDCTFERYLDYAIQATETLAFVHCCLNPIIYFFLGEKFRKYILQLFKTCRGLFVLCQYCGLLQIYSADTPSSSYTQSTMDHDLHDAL

B1: 29A8 anti-CCR8 chimeric antibody (antibody, V domains shown)
VH: EVQLVESGGGLVQPKGSLKLSCAASGFTFNAFAMNWVRQAPGKGLEWVARIRSKSNNYATYYADSVIDRFTISRDDSQSMLYLQMNNLKTEDTAMYYCVRGKEAGAYYAMDYWGQGTSVTVSS
VL: DIVMTQAAPSVPVTPGESVSISCRSSKSLLHSNGNTYLYWFLQRPGQSPQLLIYRMSNLASGVPDRFSGSGSGTAFTLRISKVEAEDVGVYYCMQHLEYPFTFGGGTKLEIK
B2: 30A7 anti-CCR8 chimeric antibody (antibody, V domains shown)
VH: QVQLVESGGGLVQPKGSLKLSCAASGFTFNTYAMNWVRQAPGKGLEWVARIRSKSNYYATYYADSVKDRFTISRDDSQSMLYLQMNNLKTEDTAMYYCLRGKEAGAYYAMDYWGQGTSVTVSS
VL: DIVMTQAAPSVPVTPGESVSISCRSSKSLLHSNGNTYLYWFLQRPGQSPQLLIYRMSNLASGVPDRFSGSGSGTAFTLRISRVEAEDVGVYYCMQHLEYPFTFGAGTKLEIK
B3: 144D2 N33Y (Fab, V domains shown)
VH: EVQLVESGGGLVQPKGSLKLSCAASGFTFNAFAMNWVRQAPGKGLEWVARIRSKSNNYATYYADSVIDRFTISRDDSQSMLYLQMNNLKTEDTAMYYCVRGKEAGAYYAMDYWGQGTSVTVSS
VL: DIVMTQAAPSVPVTPGESVSISCRSSKSLLHSYGNTYLYWFLQRPGQSPQLLIYRMSNLASGVPDRFSGSGSGTAFTLRISRVEAEDVGVYYCMQHLEYPLTFGAGTKLEIK
notes: Purified Fab mutant
B4: 144D2 M56A (Fab, V domains shown)
VH: EVQLVESGGGLVQPKGSLKLSCAASGFTFNAFAMNWVRQAPGKGLEWVARIRSKSNNYATYYADSVIDRFTISRDDSQSMLYLQMNNLKTEDTAMYYCVRGKEAGAYYAMDYWGQGTSVTVSS
VL: DIVMTQAAPSVPVTPGESVSISCRSSKSLLHSNGNTYLYWFLQRPGQSPQLLIYRASNLASGVPDRFSGSGSGTAFTLRISRVEAEDVGVYYCMQHLEYPLTFGAGTKLEIK
notes: Purified Fab mutant
B5: 144D2 M56T (Fab, V domains shown)
VH: EVQLVESGGGLVQPKGSLKLSCAASGFTFNAFAMNWVRQAPGKGLEWVARIRSKSNNYATYYADSVIDRFTISRDDSQSMLYLQMNNLKTEDTAMYYCVRGKEAGAYYAMDYWGQGTSVTVSS
VL: DIVMTQAAPSVPVTPGESVSISCRSSKSLLHSNGNTYLYWFLQRPGQSPQLLIYRTSNLASGVPDRFSGSGSGTAFTLRISRVEAEDVGVYYCMQHLEYPLTFGAGTKLEIK
notes: Purified Fab mutant
B6: 144D2 G34Y (Fab, V domains shown)
VH: EVQLVESGGGLVQPKGSLKLSCAASGFTFNAFAMNWVRQAPGKGLEWVARIRSKSNNYATYYADSVIDRFTISRDDSQSMLYLQMNNLKTEDTAMYYCVRGKEAGAYYAMDYWGQGTSVTVSS
VL: DIVMTQAAPSVPVTPGESVSISCRSSKSLLHSNYNTYLYWFLQRPGQSPQLLIYRMSNLASGVPDRFSGSGSGTAFTLRISRVEAEDVGVYYCMQHLEYPLTFGAGTKLEIK
notes: Purified Fab mutant
B7: 144D2 G34R (Fab, V domains shown)
VH: EVQLVESGGGLVQPKGSLKLSCAASGFTFNAFAMNWVRQAPGKGLEWVARIRSKSNNYATYYADSVIDRFTISRDDSQSMLYLQMNNLKTEDTAMYYCVRGKEAGAYYAMDYWGQGTSVTVSS
VL: DIVMTQAAPSVPVTPGESVSISCRSSKSLLHSNRNTYLYWFLQRPGQSPQLLIYRMSNLASGVPDRFSGSGSGTAFTLRISRVEAEDVGVYYCMQHLEYPLTFGAGTKLEIK
notes: Purified Fab mutant
B8: 144D2 N33V (Fab, V domains shown)
VH: EVQLVESGGGLVQPKGSLKLSCAASGFTFNAFAMNWVRQAPGKGLEWVARIRSKSNNYATYYADSVIDRFTISRDDSQSMLYLQMNNLKTEDTAMYYCVRGKEAGAYYAMDYWGQGTSVTVSS
VL: DIVMTQAAPSVPVTPGESVSISCRSSKSLLHSVGNTYLYWFLQRPGQSPQLLIYRMSNLASGVPDRFSGSGSGTAFTLRISRVEAEDVGVYYCMQHLEYPLTFGAGTKLEIK
notes: Purified Fab mutant
B9: 144D2 N33I (Fab, V domains shown)
VH: EVQLVESGGGLVQPKGSLKLSCAASGFTFNAFAMNWVRQAPGKGLEWVARIRSKSNNYATYYADSVIDRFTISRDDSQSMLYLQMNNLKTEDTAMYYCVRGKEAGAYYAMDYWGQGTSVTVSS
VL: DIVMTQAAPSVPVTPGESVSISCRSSKSLLHSIGNTYLYWFLQRPGQSPQLLIYRMSNLASGVPDRFSGSGSGTAFTLRISRVEAEDVGVYYCMQHLEYPLTFGAGTKLEIK
notes: Purified Fab mutant
B10: 144D2 G34I (Fab, V domains shown)
VH: EVQLVESGGGLVQPKGSLKLSCAASGFTFNAFAMNWVRQAPGKGLEWVARIRSKSNNYATYYADSVIDRFTISRDDSQSMLYLQMNNLKTEDTAMYYCVRGKEAGAYYAMDYWGQGTSVTVSS
VL: DIVMTQAAPSVPVTPGESVSISCRSSKSLLHSNINTYLYWFLQRPGQSPQLLIYRMSNLASGVPDRFSGSGSGTAFTLRISRVEAEDVGVYYCMQHLEYPLTFGAGTKLEIK
notes: Purified Fab mutant
B11: 144D2 G34V (Fab, V domains shown)
VH: EVQLVESGGGLVQPKGSLKLSCAASGFTFNAFAMNWVRQAPGKGLEWVARIRSKSNNYATYYADSVIDRFTISRDDSQSMLYLQMNNLKTEDTAMYYCVRGKEAGAYYAMDYWGQGTSVTVSS
VL: DIVMTQAAPSVPVTPGESVSISCRSSKSLLHSNVNTYLYWFLQRPGQSPQLLIYRMSNLASGVPDRFSGSGSGTAFTLRISRVEAEDVGVYYCMQHLEYPLTFGAGTKLEIK
notes: Purified Fab mutant
B12: 144D2 N33R (Fab, V domains shown)
VH: EVQLVESGGGLVQPKGSLKLSCAASGFTFNAFAMNWVRQAPGKGLEWVARIRSKSNNYATYYADSVIDRFTISRDDSQSMLYLQMNNLKTEDTAMYYCVRGKEAGAYYAMDYWGQGTSVTVSS
VL: DIVMTQAAPSVPVTPGESVSISCRSSKSLLHSRGNTYLYWFLQRPGQSPQLLIYRMSNLASGVPDRFSGSGSGTAFTLRISRVEAEDVGVYYCMQHLEYPLTFGAGTKLEIK
notes: Purified Fab mutant
B13: 144D2 N33A (Fab, V domains shown)
VH: EVQLVESGGGLVQPKGSLKLSCAASGFTFNAFAMNWVRQAPGKGLEWVARIRSKSNNYATYYADSVIDRFTISRDDSQSMLYLQMNNLKTEDTAMYYCVRGKEAGAYYAMDYWGQGTSVTVSS
VL: DIVMTQAAPSVPVTPGESVSISCRSSKSLLHSAGNTYLYWFLQRPGQSPQLLIYRMSNLASGVPDRFSGSGSGTAFTLRISRVEAEDVGVYYCMQHLEYPLTFGAGTKLEIK
notes: Purified Fab mutant from E. coli TG1, Ni-NTA purified
B14: 144D2 G34T (Fab, V domains shown)
VH: EVQLVESGGGLVQPKGSLKLSCAASGFTFNAFAMNWVRQAPGKGLEWVARIRSKSNNYATYYADSVIDRFTISRDDSQSMLYLQMNNLKTEDTAMYYCVRGKEAGAYYAMDYWGQGTSVTVSS
VL: DIVMTQAAPSVPVTPGESVSISCRSSKSLLHSNTNTYLYWFLQRPGQSPQLLIYRMSNLASGVPDRFSGSGSGTAFTLRISRVEAEDVGVYYCMQHLEYPLTFGAGTKLEIK
notes: Purified Fab mutant
B15: 144D2 M56G (Fab, V domains shown)
VH: EVQLVESGGGLVQPKGSLKLSCAASGFTFNAFAMNWVRQAPGKGLEWVARIRSKSNNYATYYADSVIDRFTISRDDSQSMLYLQMNNLKTEDTAMYYCVRGKEAGAYYAMDYWGQGTSVTVSS
VL: DIVMTQAAPSVPVTPGESVSISCRSSKSLLHSNGNTYLYWFLQRPGQSPQLLIYRGSNLASGVPDRFSGSGSGTAFTLRISRVEAEDVGVYYCMQHLEYPLTFGAGTKLEIK
notes: Purified Fab mutant
B16: 87D8 Fab antibody (Fab, V domains shown)
VH: EVQLVESGGGLVQPKGSLRLSCAASGFTFNTYAMNWVRQAPGKGLEWIARIRSKSNNYATYYADSVKDRFTISRDDSQSMLYLQMNNLKTEDTAMYYCVRGKEAGAYYAMDYWGQGTSVTVSS
VL: DIVMTQAAPSVPVTPGESVSISCRSSKSLLHSNGNTYLYWFLQRPGQSPQLLIYRMSNLASGVPDRFSGSGSGTAFTLRISRVEAEDVGVYYCMQHLEYPLTFGAGTKLELK
notes: also called clone 87D8

Biological target: T2, human CCR8 (human, UniProt P51685 1-355)
Test: cell-based or functional assay

T2 sequence (P51685 whole entry): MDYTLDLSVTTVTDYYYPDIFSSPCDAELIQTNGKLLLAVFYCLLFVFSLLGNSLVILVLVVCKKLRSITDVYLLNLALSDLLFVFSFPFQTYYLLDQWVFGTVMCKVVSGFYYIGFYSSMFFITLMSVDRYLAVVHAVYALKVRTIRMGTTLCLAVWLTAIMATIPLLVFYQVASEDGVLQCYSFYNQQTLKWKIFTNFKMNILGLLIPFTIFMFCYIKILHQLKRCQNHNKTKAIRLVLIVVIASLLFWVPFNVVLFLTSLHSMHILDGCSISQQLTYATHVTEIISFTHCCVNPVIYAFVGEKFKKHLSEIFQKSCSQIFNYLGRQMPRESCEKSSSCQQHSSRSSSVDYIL

How did the “ADCC EC50 (nM), NK92-CD16A effectors, HEK293-hCCR8 targets, LDH release” value turn out when B1 was run?
Its value is 0.1 nM.

For B2, which “ADCC EC50 (nM), NK92-CD16A effectors, HEK293-hCCR8 targets, LDH release” value is on record?
The value was 0.21 nM.

Biological target: T2, human CCR8
Test: flow cytometry, chimeric IgG on CHO-hCCR8 cells
Experimental: 5×10⁴ CHO-hCCR8 or CHO-cynoCCR8 cells were added per well in a 96-well U-shaped plate and centrifuged to discard the supernatant, 100 μL of a gradiently diluted anti-CCR8 chimeric antibody or anti-KLH isotype control antibody was added per well and the mixture was incubated on ice for 60 minutes. After the unbound primary antibody was washed away, 50 μL of a secondary antibody AlexaFluro647 anti-human IgG (Jackson Immuno Research #109-606-170) was added per well and the mixture was incubated on ice for 30 minutes. After the washing, 50 μL of 5 μg/mL of a PI/BSA solution was added to each well and the mixture was incubated on ice for 5 minutes. Then excess secondary antibody was washed away with 0.5% BSA, the cells were resuspended by adding a PBS solution, and binding of the antibody to the cells was detected using a flow cytometer (Intellicyte iQue). The fluorescence value of a Pi-negative cell population was analyzed. Cell-binding curves were fitted by Graphpad Prism 7 (FIG. 2). The chimeric antibodies of 87D8, 102H5, 109F6, 110G2, 113B3, 139A9, 144D2, etc. all bound with high affinities to human CCR8+ cells CHO-hCCR8 and cynomolgus monkey CCR8+ cells CHO-cynoCCR8.

How did the EC50 turn out when B1 was run?
The EC50 was 3.24 nM.

How did the EC50 turn out when B2 was run?
Its EC50 is 3.39 nM.

Biological target: T2, human CCR8
Test: flow cytometry, purified Fab on CHO-hCCR8 cells

How did the EC50 turn out when B3 was run?
The EC50 was 13.8 nM.

Which EC50 does the source give for B4 here?
Its EC50 is 4.71 nM.

B5 was tested. Which EC50 did it give?
The EC50 was 2.69 nM.

How did the EC50 turn out when B6 was run?
The EC50 was 2.22 nM.

How did the EC50 turn out when B7 was run?
Its EC50 is 1.34 nM.

Which EC50 does the source give for B8 here?
Its EC50 is 5.72 nM.

For B9, which EC50 is on record?
The EC50 was 6.68 nM.

With B10 as the binder, how does the EC50 read?
The EC50 was 3.87 nM.

How did the EC50 turn out when B11 was run?
Its EC50 is 3.16 nM.

For B12, which EC50 is on record?
Its EC50 is 6.75 nM.

Which EC50 does the source give for B13 here?
The EC50 was 8.27 nM.

Which EC50 does the source give for B14 here?
Its EC50 is 2.83 nM.

For B15, which EC50 is on record?
The EC50 was 4.85 nM.

Biological target: T1, human CCR4
Test: flow cytometry of purified Fab on cells stably expressing human CCR4
Experimental: The positive clones obtained in example 1 were re-induced to express and purified to obtain a Fab antibody. The binding to cells stably expressing human CCR8, cynomolgus monkey CCR8 and human CCR4 was tested respectively, 5×10⁴ test cells were added to each well of a 96-well U-shaped plate and centrifuged to discard the supernatant, 100 μL/well of the purified Fab antibody was added and the mixture was incubated on ice for 60 minutes. After washing away the unbound primary antibody, 50 μL of a secondary antibody solution (Anti-human IgG, F(ab′)2-AF647, Jackson Immuno Research) was added to each well and the mixture was incubated on ice for 30 minutes. After washing, 50 μL of a PI/BSA solution at 5 μg/mL was added to each well and the mixture was incubated on ice for 5 minutes. Then excess secondary antibody was washed away with 0.5% BSA, the cells were resuspended by adding a PBS solution, and binding of the antibody to the cells was detected using a flow cytometer (Intellicyte iQue).

Does B16 bind?
Result: no binding
